From patent US20020164690A1

T1: gp130 on PC12D cells (UniProt P40190)
T1 sequence (looked up): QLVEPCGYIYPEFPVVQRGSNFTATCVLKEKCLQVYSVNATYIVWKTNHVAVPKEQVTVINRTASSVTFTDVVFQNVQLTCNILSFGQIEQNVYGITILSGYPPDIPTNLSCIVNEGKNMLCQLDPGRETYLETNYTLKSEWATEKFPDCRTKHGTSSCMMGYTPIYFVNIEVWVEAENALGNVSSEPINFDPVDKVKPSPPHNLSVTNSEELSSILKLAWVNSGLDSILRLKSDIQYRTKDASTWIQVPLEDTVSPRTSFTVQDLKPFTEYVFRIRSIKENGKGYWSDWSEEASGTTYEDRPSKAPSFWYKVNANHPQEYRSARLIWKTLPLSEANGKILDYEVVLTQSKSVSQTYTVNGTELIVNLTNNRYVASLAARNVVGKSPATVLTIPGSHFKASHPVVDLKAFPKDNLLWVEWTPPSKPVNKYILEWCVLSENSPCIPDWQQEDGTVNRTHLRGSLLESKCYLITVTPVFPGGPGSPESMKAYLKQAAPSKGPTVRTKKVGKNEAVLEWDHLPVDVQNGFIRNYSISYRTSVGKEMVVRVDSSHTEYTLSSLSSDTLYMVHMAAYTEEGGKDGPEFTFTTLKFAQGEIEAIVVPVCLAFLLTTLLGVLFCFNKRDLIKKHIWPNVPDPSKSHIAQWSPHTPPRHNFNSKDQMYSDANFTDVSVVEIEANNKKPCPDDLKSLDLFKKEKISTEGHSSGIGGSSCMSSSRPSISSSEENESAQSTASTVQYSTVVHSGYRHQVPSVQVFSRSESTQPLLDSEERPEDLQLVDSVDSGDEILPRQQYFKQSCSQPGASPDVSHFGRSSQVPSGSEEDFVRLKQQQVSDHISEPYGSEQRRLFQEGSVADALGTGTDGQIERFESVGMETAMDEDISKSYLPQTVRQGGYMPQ


Legend:
gp130 on PC12D cells = target: T1, gp130 on PC12D cells; assay: cell-based or functional assay
[1] = target: recombinant human IL-6 (human) (UniProt P05231); assay: cell-based or functional assay
human 125I-IL6 (human) = human 125I-IL6 (human) (UniProt P05231); assay: dissociation: 20 pM 125I-IL-6 preincubated with 500 pM antibody for 20 hours, chased with 20 nM cold IL-6, precipitation with Protein G-Sepharose
human 125I-IL6 (human), sequence (P05231 30-212 limits assumed): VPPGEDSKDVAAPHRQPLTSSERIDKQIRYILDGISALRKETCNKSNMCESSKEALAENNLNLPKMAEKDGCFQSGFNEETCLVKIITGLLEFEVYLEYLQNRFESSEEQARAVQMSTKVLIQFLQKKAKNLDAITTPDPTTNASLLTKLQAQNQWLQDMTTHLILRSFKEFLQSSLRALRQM

recombinant human IL-6 (human), sequence (P05231 30-212 limits assumed): as above

tyrosine phosphorylation of gp130 in PC12D cells in response to IL-6 (gp130 on PC12D cells) [nM]	tyrosine phosphorylation of gp130 in PC12D cells in response to IL-6 and sIL-6Rα (gp130 on PC12D cells) [nM]	IL-6-dependent proliferation of XG-1 cells (50 pg/ml IL-6): molar excess that blocks completely (fold molar excess over IL-6) [1]	percent of the counts still associated after three days (human 125I-IL6 (human)) [%]	Binder
2	8	–	–	Rat CNTF (ligand, UniProt P20294 1-200, looked up) MAFAEQTPLTLHRRDLCSRSIWLARKIRSDLTALMESYVKHQGLNKNINLDSVDGVPVASTDRWSEMTEAERLQENLQAYRTFQGMLTKLLEDQRVHFTPTEGDFHQAIHTLMLQVSAFAYQLEELMVLLEQKIPENEADGMPATVGDGGLFEKKLWGLKVLQELSQWTVRSIHDLRVISSHQMGISALESHYGAKDKQM
–	–	10	< 5	anti-IL-6 monoclonal neutralizing antibody B-E8 (antibody, from another filing, V domains shown) VH: QVTLKESGPGILKPSQTLSLTCSFSGFSLSTSGMGVGWIRQPSGKGLEWLAHIWWDDDKYYNPSLKSQLTISKDTSRNQVFLKITSVDTADTATYYCARSYDDYLYYALDYWGQGTSVTVSS VL: DIVMTQSPATLSVTPGDRVSLSCRASQSISDYLHWYQQKSHESPRLLIKSVSQSISGIPSRFSGSGSGSDFTLSINSVEPEDVGVYYCQNGHSFPLTFGAGTKLELK
